Measured values as given in article PMC6199149.

What was measured:
[1] = target: nuclear dUTP nucleotidohydrolase (nuclear isoform of dUTPase), endogenous (human (endogenous in U-2 OS, Saos2, A549, 18Co, HeLa)); assay: cross-linking
[2] = target: nuclear dUTP nucleotidohydrolase (nuclear isoform of dUTPase), endogenous (human (endogenous in U-2 OS, Saos2, A549, 18Co, HeLa)); assay: non-reducing SDS-PAGE with western blot
[3] = target: recombinant Wt nuclear dUTPase with N-terminal hexahistidine tag, from E. coli (human); conditions: scale: pmol of dUTP per minute per ng of protein

nuclear dUTP nucleotidohydrolase (nuclear isoform of dUTPase), endogenous (enzyme)
stoichiometry N [1]: 2 | stoichiometry N [2]: 2

recombinant Wt nuclear dUTPase with N-terminal hexahistidine tag, from E. coli (enzyme)
dUTPase enzymatic assay (37°C, 5 min, no reducing agent) [3]: 7.27
